Test results: patent US20200325214A1 (NUMAB THERAPEUTICS, published 2020)

How the values were obtained:
human serum albumin [1] = molecular target: T1, human serum albumin (human, UniProt P02768 25-609); assay: SPR; species not given, human SA taken from Table 3
T1 construct: Amine-coupled to the SPR chip; also called HSA; human SA

rat serum albumin [2] = molecular target: T2, rat serum albumin (rat, UniProt P02770 25-608); assay: SPR (MASS-1), SA amine-coupled, scFv analyte, pH 5.5
T2 construct: Amine-coupled to the SPR chip; also called rat SA; rodent SA
Experimental: (§1) Affinity of the humanized scFvs to serum albumin (SA) of the different species was determined by SPR measurements using a MASS-1 device (Sierra Sensors). SA was directly coupled to a high capacity amine sensor chip (Sierra Sensors) using amine coupling chemistry. […] The assay was run twice at different pH values: once in a 1×PBS-Tween buffer at pH 5.5 and another time in a 1×PBS-Tween buffer at pH 7.4.

mouse serum albumin [3] = molecular target: T3, mouse serum albumin (mouse, UniProt P07724 25-608); assay: as above
T3 construct: Amine-coupled to the SPR chip; also called mouse SA; rodent SA
Experimental: as §1

[4] = molecular target: T4, marmoset (purified) serum albumin (marmoset); assay: as above
T4 construct: Amine-coupled to the SPR chip; also called marmoset SA
Experimental: as §1

cynomolgus serum albumin [5] = molecular target: T5, cynomolgus serum albumin (cynomolgus, UniProt A2V9Z4 25-608); assay: as above
T5 construct: Amine-coupled to the SPR chip; also called cynomolgus SA
Experimental: as §1

human serum albumin [6] = molecular target: T1, human serum albumin; assay: as above
Experimental: as §1

rat serum albumin [7] = molecular target: T2, rat serum albumin; assay: SPR (MASS-1), SA amine-coupled, scFv analyte, pH 7.4
Experimental: as §1

mouse serum albumin [8] = molecular target: T3, mouse serum albumin; assay: as above
Experimental: as §1

cynomolgus serum albumin [9] = molecular target: T5, cynomolgus serum albumin; assay: as above
Experimental: as §1

human serum albumin [10] = molecular target: T1, human serum albumin; assay: as above
Experimental: as §1

cynomolgus serum albumin [11] = molecular target: T5, cynomolgus serum albumin; assay: SPR; upper end tied to cynomolgus SA at pH 5.5 by the KD values of Table 3
Experimental: as §1

human serum albumin [12] = molecular target: T1, human serum albumin; assay: SPR; lower end tied to human SA at pH 5.5 by the KD values of Table 3
Experimental: as §1

rat serum albumin [13] = molecular target: T2, rat serum albumin; assay: SPR, SA coupled to the chip, scFv as analyte
Experimental: as §1

mouse serum albumin [14] = molecular target: T3, mouse serum albumin; assay: SPR, SA coupled to the chip, scFv as analyte
Experimental: as §1

Row | Binder | Kd [4] [nM] | koff [4] [s⁻¹] | kon [4] [M⁻¹ s⁻¹] | Kd (cynomolgus serum albumin [5]) [nM] | koff (cynomolgus serum albumin [5]) [s⁻¹] | kon (cynomolgus serum albumin [5]) [M⁻¹ s⁻¹] | Kd (human serum albumin [6]) [nM] | koff (human serum albumin [6]) [s⁻¹] | kon (human serum albumin [6]) [M⁻¹ s⁻¹] | Kd (cynomolgus serum albumin [9]) [nM] | koff (cynomolgus serum albumin [9]) [s⁻¹] | kon (cynomolgus serum albumin [9]) [M⁻¹ s⁻¹] | Kd (human serum albumin [10]) [nM] | koff (human serum albumin [10]) [s⁻¹] | kon (human serum albumin [10]) [M⁻¹ s⁻¹] | other results
1 | 23-13-A01-sc02 (scFv, V domains shown, also called clone 23-13-A01 STR graft; humanized scFv) VH: EVQLVESGGGLVQPGGSLRLSCAASGFSFSSSYWICWVRQAPGKGLEWVGCVFTGDGTTYYASWAKGRFTISRDNSKNTVYLQMNSLRAEDTATYFCARPVSVYYYGMDLWGQGTLVTVSS VL: DVVMTQSPSSLSASVGDRVTITCQASQIISSRSAWYQQKPGQPPKLLIYQASKLASGVPSRFSGSGSGTDFTLTISSLQPEDFATYYCQCTYIDSNFGAFGGGTKLTVLG | 3.77 | 0.00128 | 338000 | 0.75 | 0.000253 | 338000 | 0.373 | 0.000115 | 307000 | 1.3 | 0.000433 | 334000 | 0.6 | 0.000194 | 323000 | fold improvement of affinity of the STR graft over the CDR graft 23-13-A01-sc01 (human serum albumin [1]): ~3 fold; Kd (rat serum albumin [2]): 18.7 nM; koff (rat serum albumin [2]): 0.00437 s⁻¹; kon (rat serum albumin [2]): 234000 M⁻¹ s⁻¹; Kd (mouse serum albumin [3]): 4.86 nM; koff (mouse serum albumin [3]): 0.000933 s⁻¹; kon (mouse serum albumin [3]): 192000 M⁻¹ s⁻¹; Kd (rat serum albumin [7]): 231 nM; koff (rat serum albumin [7]): 0.0245 s⁻¹; kon (rat serum albumin [7]): 106000 M⁻¹ s⁻¹; Kd (mouse serum albumin [8]): 32.2 nM; koff (mouse serum albumin [8]): 0.00469 s⁻¹; kon (mouse serum albumin [8]): 146000 M⁻¹ s⁻¹
2 | 19-01-H04-sc02 (scFv, V domains shown, also called clone 19-01-H04 STR graft; humanized scFv) VH: EVQLVESGGGLVQPGGSLRLSCAASGFSLSSNAMGWVRQAPGKGLEYIGIISVGGFTYYASWAKGRFTISRDNSKNTVYLQMNSLRAEDTATYFCARDRHGGDSSGAFYLWGQGTLVTVSS VL: DIQMTQSPSSLSASVGDRVTITCQSSESVYSNNQLSWYQQKPGQPPKLLIYDASDLASGVPSRFSGSGSGTDFTLTISSLQPEDFATYYCAGGFSSSSDTAFGGGTKLTVLG | 0.674 | 0.0026 | 3.86e+06 | 0.387 | 0.000231 | 598000 | 0.684 | 0.000308 | 450000 | 0.711 | 0.000302 | 424000 | 1.07 | 0.000411 | 384000 | fold improvement of affinity of the STR graft over the CDR graft 19-01-H04-sc01 (cynomolgus serum albumin [11]): 20 to 300 fold; fold improvement of affinity of the STR graft over the CDR graft 19-01-H04-sc01 (human serum albumin [12]): 20 to 300 fold; binding result (rat serum albumin [13]): no binding; binding result (mouse serum albumin [14]): no binding
